Consider seven substances from PMC11903679.

Assay [1] deals with HLA-B*08:01/hβ2m (human).
The target of assay [2] is HLA-A*02:01/hβ2m (human).
Assay [3] deals with HLA-B*08:01/hβ2m (human). The assay can be described thus: in vitro refolding + SEC.
Assay [4] deals with HLA-A*02:01/hβ2m (human). The assay can be described thus: in vitro refolding + SEC.
In assay [5] the target is HLA-E*01:03/hβ2m (human).
Assay [6] addresses HLA-E*01:03/hβ2m (human). In words: in vitro refolding + SEC.
In assay [7] the target is HLA-E*01:03/hβ2m (human). This is another data set of the same source.

Take LSA3 78–87 (…) (peptide): the results for the nanoDSF melting temperature (Tm) of the refolded peptide/HLA/hβ2m complex in assay [1] and in assay [2] were 56.3 °C and 52.5 °C, respectively. Further, the apparent refolding yield (%) in assay [3] came to 14.7%; in assay [4], 13.5%.
With LSA3 1229–1238 (…) (peptide), the nanoDSF melting temperature (Tm) of the refolded peptide/HLA/hβ2m complex in assay [5] came to 61 °C; in assay [1] it was 60.5 °C; in assay [2] it was 58.4 °C. For the same substance, the values for the apparent refolding yield (%) in assay [6], in assay [3] and in assay [4] were 38.1%, 47.6% and 24.6%, respectively.
In assay [2], MSP1 511–520 (…) (peptide) returned a nanoDSF melting temperature (Tm) of the refolded peptide/HLA/hβ2m complex of 51.6 °C. Also, the values for the apparent refolding yield (%) in assay [3] and in assay [4] were 44.4% and 19%, respectively.
As for MSP1 643–652 (…) (peptide), the results for the nanoDSF melting temperature (Tm) of the refolded peptide/HLA/hβ2m complex in assay [5] and in assay [1] were 38.4 °C and 52.9 °C, respectively. Moreover, the nanoDSF melting temperature of a minor population of the refolded complex in assay [7] came to 63 °C. The apparent refolding yield (%) amounted to 8% in assay [6] and 32.6% in assay [3].
MSP1 823–832 (…) (peptide): the nanoDSF melting temperature (Tm) of the refolded peptide/HLA/hβ2m complex was determined as 52.6 °C in assay [1] and 63.2 °C in assay [2]. For the same substance, in assay [3], the apparent refolding yield (%) amounted to 12.5%.
Take MSP1 880–889 (…) (peptide): the nanoDSF melting temperature (Tm) of the refolded peptide/HLA/hβ2m complex turned out to be 51.6 °C in assay [1] and 53.6 °C in assay [2]. Moreover, the apparent refolding yield (%) in assay [3] stood at 63.3%.
For SSFP 93–102 (…) (peptide), the nanoDSF melting temperature (Tm) of the refolded peptide/HLA/hβ2m complex worked out at 56.3 °C in assay [1] and 52.5 °C in assay [2]. Besides, the apparent refolding yield (%) in assay [3] came to 51.1%; in assay [4], 27.1%.
